The record followed here is patent US20060280804A1 (CONSEJO SUPERIOR DE INVESTIGACIONES CIENTIFCAS, published 2006).

A value given as a limit tells only on which side of the number the result lay.

This assay concerns the target T1, angiotensin converting enzyme (ACE, EC 3.4.15.1, Sigma).
T1 sequence (P12822 whole entry, species assumed, looked up): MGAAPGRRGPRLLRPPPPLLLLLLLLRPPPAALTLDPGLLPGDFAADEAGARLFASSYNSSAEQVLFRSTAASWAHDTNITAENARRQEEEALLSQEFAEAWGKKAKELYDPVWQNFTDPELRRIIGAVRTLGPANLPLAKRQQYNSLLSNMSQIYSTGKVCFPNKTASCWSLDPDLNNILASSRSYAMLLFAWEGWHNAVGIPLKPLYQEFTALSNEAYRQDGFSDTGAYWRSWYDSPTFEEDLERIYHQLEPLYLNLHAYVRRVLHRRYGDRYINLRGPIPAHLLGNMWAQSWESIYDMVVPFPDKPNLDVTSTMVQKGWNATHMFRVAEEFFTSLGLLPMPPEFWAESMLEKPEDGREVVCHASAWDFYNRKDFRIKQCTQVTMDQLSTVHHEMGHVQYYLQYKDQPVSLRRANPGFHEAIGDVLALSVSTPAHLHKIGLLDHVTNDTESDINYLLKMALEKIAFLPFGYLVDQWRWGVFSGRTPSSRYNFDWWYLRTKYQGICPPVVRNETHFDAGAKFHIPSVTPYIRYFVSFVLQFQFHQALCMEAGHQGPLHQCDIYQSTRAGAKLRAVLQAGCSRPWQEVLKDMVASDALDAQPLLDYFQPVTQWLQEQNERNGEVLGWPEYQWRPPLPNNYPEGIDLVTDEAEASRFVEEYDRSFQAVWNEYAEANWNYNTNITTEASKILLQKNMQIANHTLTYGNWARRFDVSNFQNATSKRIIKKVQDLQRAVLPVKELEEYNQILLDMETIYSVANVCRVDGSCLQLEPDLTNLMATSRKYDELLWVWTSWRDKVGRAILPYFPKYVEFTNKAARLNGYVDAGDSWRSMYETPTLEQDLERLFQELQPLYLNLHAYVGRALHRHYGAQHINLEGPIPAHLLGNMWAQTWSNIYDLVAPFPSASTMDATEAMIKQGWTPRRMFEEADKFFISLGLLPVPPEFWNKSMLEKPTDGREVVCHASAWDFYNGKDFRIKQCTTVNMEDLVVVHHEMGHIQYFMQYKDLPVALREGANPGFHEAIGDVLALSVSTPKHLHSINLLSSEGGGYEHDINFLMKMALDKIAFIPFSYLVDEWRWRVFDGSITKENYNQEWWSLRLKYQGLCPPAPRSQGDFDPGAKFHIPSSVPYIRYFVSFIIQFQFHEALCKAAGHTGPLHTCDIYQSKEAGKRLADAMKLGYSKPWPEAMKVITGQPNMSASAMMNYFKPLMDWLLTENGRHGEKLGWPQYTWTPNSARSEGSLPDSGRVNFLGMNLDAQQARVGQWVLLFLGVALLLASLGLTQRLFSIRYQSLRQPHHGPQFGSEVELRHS
In words: cell-based or functional assay.
Consider ESIINF [ESIINF, synthetic peptide, ovalbumin 256-261], for which the “ACEI activity, IC50” value was greater than 1000 µM. The value for VLLPDEVSGL [VLLPDEVSGL, synthetic peptide, ovalbumin 243-252] was greater than 1000 µM; that for RADHPFL [RADHPFL (SEQ. ID. No 3), synthetic peptide, ovalbumin 359-365] was 6.2 µM.

As for YRGGLEPINF [YRGGLEPINF, synthetic peptide, ovalbumin 125-134], the “ACEI activity, IC50” value was greater than 1000 µM. The value for SALAM [SALAM (SEQ. ID. No 8), synthetic peptide, ovalbumin 36-40] was 229 µM.

On to RDILNQ [RDILNQ (SEQ. ID. No 7), synthetic peptide, ovalbumin 84-89], for which the “ACEI activity, IC50” value amounted to 436 µM.

ELIN [ELIN, synthetic peptide, ovalbumin 144-147]: the “ACEI activity, IC50” value is greater than 1000 µM. For YAEERYPIL [YAEERYPIL (SEQ. ID. No 6), synthetic peptide, ovalbumin 106-114] the value was 4.7 µM; for YQIGL [YQIGL (SEQ. ID. No 1), synthetic peptide, ovalbumin 212-216], 174 µM.
